These results are taken from the nanobody polyreactivity screen of Harvey et al. (2022).

The nature of the data set: yeast display, Sf9 membrane polyspecificity reagent, FACS + sequencing; frameworks hold sequencing errors. The essentials:
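Galactose-induced (36–48 hours) yeast carrying a synthetic nanobody display library were exposed to 10% biotinylated, detergent-solubilized Sf9 membrane reagent at 4 °C for 1 hour. FACS followed streptavidin microbead enrichment, using low and high (top ~1%) gates for expression (anti-HA) and reagent binding (streptavidin). Colony PCR, MiSeq 2 × 250 sequencing and CDR-length filtering followed. Labels for polyreactivity reflect the gate of origin.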
For “QVQVVESGGGLVQAGGSLRLTCAASGRTFINYAIGRYRQPAAKERELVAAITPGGRTNYADSVKGRFTNSRDNAKYTVYLQMNSVTPEDTAVYYCAADRYYWGRYTLNYWGQGTQVTVSS”, the “polyreactivity (PSR sort gate)” value was “low polyreactivity”.

Regarding “QVQVVESWGGLVQEAGSLRLSCAASGRTFAHYNMGSYRQAPGKERELVARIDWSCGNTYYADSVKGRFTISRDNAKITVFLQMNRLKPQDTAVYYCAAVPAFYNAWGEDYEYWGQGTHVTVSS”, the “polyreactivity (PSR sort gate)” value was “low polyreactivity”.

Take “QVRLVESGGGLVQAGCSLRLSCAASGSTFWSYAMGWYRQAPGKERELVAAISWSGDSTYYADSVKGRFTISRDNAKNTVYLQMNSLKPEDSAVYYCAADYTGSFYTYDYWGQGTQVTVSS”: the “polyreactivity (PSR sort gate)” value is reported as “low polyreactivity”. Under “QVRLVESGGGLVQAGGSLRLSCAASARILPYYPMGWYRQAPGKERELVAAISWSGGRTYYADSVKGRFTISRDNAKNTVYLQMNSLKPEDTAVYYWATRRVTHVPGSSRYDYWGQGTQVTVSS” stands “low polyreactivity”; under “QVRLVESGGGLVQAGGSLRLSCAASGRIFQYYAMGWYRQAPGKERELVASITSGGGSTYYADSVKGRFTISRDNAKNTVYLQMNSLKPEDTAVYYCNARWYGLSTRYDYWGQGTQVTVSS”, “low polyreactivity”. “QVRLVESGGGLVQAGGSLRLSCAASGRTFTHNVMGWYRQAPGKERELVAGISSTGGSTYYADSVKVRFTISRDNAKNTVYLQMNSRKPEDPAVYYCNADYASYYRYSRPLEMNYWGQGTQVTVSS”: the “polyreactivity (PSR sort gate)” value is on record as “low polyreactivity”. Under “QVRLVESGGGLVQAGGSLRLSCAASGSTFYPYDMGWYRQAPGKERELVATISSGVSTNYADSVKGRFTISRDNAKNTVYLQMNSLKPEDTAVYYCAVDYFIGDDDYWGQGTQVTVSS” stands “low polyreactivity”. The result for “QVTLVESGGGLVQAGGSLRLSCAASGSIRGYALGWSRQPPGKDRALVAAMSWRGGSTYYADSVKGRFTISRDNAKNTVYLQMNSLKPEETAVYYCAVEYVYWLSWYFQYDYWGQGTQVTVSS” reads “low polyreactivity”. In the case of “QYQLVESGGGLVHEGGSLSLRCAASGSNLYYYAMGWYRKAPGKERDLDAAITYSGGNTYYADSVKGRFTISRDNAKNNVYLQMNSLKPEDTAVYYCAADDWSSDYIRYEYWGQGTQVTVSS”, the “polyreactivity (PSR sort gate)” value is given as “low polyreactivity”. Consider “RVHLVESGGGLVQAGGSLRLSCAASGRIFDNYVMGWYRQAPGKESELVAAISSGGGTYYADSVKGRFTISRDNAKNTVYLQMKSLKPEDTAVYFCAKRRVFDRSFGRYDYWGQGTQVTVSS”, for which the “polyreactivity (PSR sort gate)” value is “low polyreactivity”.

As to “RVQLVESGGGLVQAGGSLRLSCAASGRIFSYKAMGWYRQAPGKERELVAAITFSGGGTYYADSVKGRFTISRDNAKNPVYLQMNSLKPEDTAVYYCNKVSYGYSSYGYWGQGTQVTVSS”, the “polyreactivity (PSR sort gate)” value is listed as “low polyreactivity”. Under “RVQLVESGGGLVQAGGSLRLSCAASGRTFVNYAMGWYRQAPGKEREFVAAITNGGRTNYADSVKGRFTISRDNAKNTVYLQMNSLQPEETEVYYCAARYRFGGIRRYNYWGQGTQVTVSS” stands “high polyreactivity”; under “RVQLVESGGGLVQAGGSLRLSCAASGSTFENYAMGWYRQAPGKERELVAAISSGGSTYYADSVKGRFTISRDNAKNTVYLQMNSLKPEDTAVYYCAAELEYWLYGYGYYYWGQGTQVTVSS”, “high polyreactivity”. With “RYADSVKGRFTISRDNAKNTDYLQMNSLKPEDTAVYYCAAKGPEPPSLDESDYWGQVTQVTVSS”, the “polyreactivity (PSR sort gate)” value is “low polyreactivity”.
